Experimental data from the DeepSol protein solubility set.

experiment: soluble on expression in E. coli; label from the status in PepcDB or PDB records

Sequence | soluble on expression in E. coli
MWDQHMHCMFSGDSDADPVLMINSAINKGLDGICFTDHLDYDYKEEPGLFDLDIAAYEKRIKRLAIVLKEKGCPINIHWGIEIGLQPHITDKNNEVAKKYPFDLVIGSSHVVNGIDPYYPAFYKGKTEHEAYTEYFESILDNLHSGADFDVYGHIDYVVRYGPDKNKYYSYERYADIIDAILKEIISQGKGIELNTAGFKYGLGHSNPTEDVLKRYHELGGEIITVGADAHKPEHVAYDFDKVSNILKDAGFMYYTVFENRVPAFIKL | not soluble
MPTKANTQRNWTIMVYLAGDNNLDSAGVVDLKEMKTVGTTDKIAVLAQFDRAGAKQATIRYCLKQGTPLAKDAVQSLGETNMGDPKVLEDFVTWGVANYPADHYLLVLWNHGAGWDDANLYQGDVFSGAAPPVSRKAQPVATRGATAGAKAIPLAQARAGIRRARRALFSTTVEAAIKQRGIAFDDQAQDFLDNIELKRVLTAIKKKLKRKIDIVGMDACLMSMAEVAYQMRDVADYSVGSEETEPGDGWPYDRILKALAAKPAMTPEELSKTIVAQYLASYKATENVTQSAMKLLALNPLATAVDGMAKALTGILGDTAARTALINARSQVQEYSRPYDDYCDLLDLCDLIGKGVASPAVKTACAKVKDAAAAAIVAAGYKGTGVDNSGGISIYFPKRKLSPLYKTLDFTKKTAWDEFLAAYLAGLGRLEHHHHHH | soluble
MREVLYRSDIYVFGRYPMSSFIGYPGLSSSSFCTHINFFYASSCTSTARVFRKKWREIFFVLARKNFTSRAKSKIFPRHVFRDMNKEIFRTQTI | not soluble
MGSDKIHHHHHHMADFSNQIVTIKKGLDLPIAGEPRQVIELGAKPSQVAVLGEEFVGLKPTMLVEEGDWVQKGQALFEDKKTPGVLFTAPASGQVVAINRGERRILQSVVIRCDDGENRDGQISFEIHQDIAALARSTVQAQLVKSGLWTALRTRPFSRVPALDSTPAGIFVTAIDTNPLAADPRLIIAEQTEAFKAGLLVLSRLTEGKVYLCQDKGEAIVKEALPQLEVRRFDGVHPAGLVGTHIHFTLPVSLERQVWHIGYQDVIAYGKLFQTGELYTDRIVALGGPSVLNPRLLRTQLGAELSPLVSDDIKPGQNRVVSGSVLSGHTAVGVHDFLGRFHNQVSVLSEDAQHHVLSWVRGGSDKFSITRAVTSRLFGATKLFEFTTHQGGSARAMMAFGQLDRVMPLDILPTLLVRDLVVRDTDEAQALGALELDEEDLALCTFVCPGKYDFGKELRACLDVIEREG | not soluble
MSLRTYENVVILTDLTAGTTYYYKIVSTNSTVDHFLSPRVPGDETPFSINAVIDLGVYGEDGYTIKGDKSKKDTIPTINPALNHTTIGRLASTVDDYEFVIHPGDFAYADDWFLSLDNLLDGENAYQAILENFYEQLAPISGRKPYMASPGNHEAACQEIPFTTGLCPDGQKNFTDFMHRFGRTMPSSFTSVSTNDSAKVFANQARELAQPPFWYSFEYGMAHIVMINTETDFEDAPSGKGGSAHLNGGPFGAKNQQLEFLEADLASVDRDVTPWVIVAGHRPWYTAGSACTPCQEAFEDLLYTYGVDLGVFGHVHNAQRFLPVYNSVADPNGMQDPKAPMYIVAGGAGNIEGLSSITKQLDFTEFANDEDYTYSTIRFLDRNHLQVDFINSVSGEVLDTSTLYKSHEARFVREGHHHHHH | not soluble
MGSDKIHHHHHHMNKSIRSSTLTRIRLIEAASQVFASLGVQGATTREIARVAGVNEVTLFRHFASKEQLLGAVIKNALALQTEALAYPEAWTQDLKIDLRQYAHLYNTMLEAQEDLIRTFIGEAKRHPEAAKQVIQEAAKPLREKLVAYLESSQKLGTVRVDLAPFPAVDMFTGMLLAGMLCRSAKFNQGSYSCEDYIETCVDIFVRGISTSNSSQCGCKF | not soluble
MHSPDPFTDHPDSDDSFEKFVPTPNVNRRRSDAIIVSDEGSFDGITGYSQVTVIENCPNTTVLEDENKRANPDDTITRMLESSDEEDETENNSDNDALADLLKSFRTEDQKRKEVDIEQAANISIDIFGDLIEEVDSEHEAAEYPDREGGNSMDKQGTMLPVEVPIQNNIKLIPRKRRLEPKSYDCEPSTSAAHGPVGVVSSDSGEYWNQQKTITIHGQNFEINNFNDYMRMKITKLNHQVNHGYAKPLENVSRIMEGFSVFVNGYTDPPALVIRDLMISHGGEYHCYYQHGITSYTIASSIATAKINRIRENEIFIKADWITESIAAGKPLDYRDFLIYEKGSVEKGQMQQFLTISTRNTGGNNETTSSNQFSDARNPNFIRDYYARSRLHLISTLAQDMKDFVANLKLEGKLTEKCFEEKELIDMKSLSNEISRESTVFHVDLDCFFVSVAVRNRIDLKHKEVAITHSKGTISNSMSEVASCSYAARDCGVKNGMLVRDALQKCPQLTLLPYQFEDYVQVSRKIYEILASYTLEVRAVSCDEMYINMSSFCEKYEINDPTILAEHIRKVIREKTQCPASVGIGSTSLLARLATRHAKPDGVFWVNAHKKNEFISEEKVKDLPGFGYEMMNRLTSFFGDITKCRELQLKTERELVPVFGPKLASKILRQCRGIEEDPDDFWATHVRKSVSCDINYGIRFTKRGEVIQLMTAIGAELERKLIDSKLTAGSITLKLMVRSANAPIQTSKFMGHGICDTFTKTCNLNVPTTRGESLTSEAMKLYAKVSPKVEDLRGVGVTCGKLKSKLKKDAATAVQEMFGKTSRVGNMARTDEQLNIIPRNEDELDKEPVIIPAVTEDLEVQSIPRQINFRVANDIDIPEIVKSTLLNGRSDNNLELEDLEDDGLVENRLAELECIIQNEPTKESVTNLQEMLSTLLNYGKLSAFETVFRKFEEISMDSSRCDTAWFSVFHLMVPFIEEESKDLLEFPIATTRNLGAMIASNTDNTSISSPEPFVPKEVFVIDSTKHT | not soluble
MTEFFSQKQIDEIRECFNFYSTSGVLRTDSQLRCALRSLGYSPTASKTDIYFKKLNKKPIEFATFLDICKDEQNSPNPLTEIIKALSGLDRNKTRAMPSRELAAILSHVGEQMSPEEIKYLLSKVEVNGMVPHQALIEYISK | not soluble
MSREDELLEKLDECENATAFLQVSNKIINLKLKALLPSVFVQDDLVKEYAVDPLLREDGPLVTTDVVSKLMFAMGKISLQTYADIGLYDQVLEYVVTQPEKIAFTDDVIYDFIKNQAVLSSQQDCFYLESINQLKFSSFESFSQMRYESLIKTVLKLSCEMLIERIEEEINQ | soluble
SMQPIVIHSSGKNYGFTIRAIRVYVGDSDIYTVHHIVWNVEEGSPACQAGLKAGDLITHINGEPVHGLVHTEVIELLLKSGNKVSITTTPFENTETSV | soluble
MNITPLTSAAGKGSSAQGTDKISIPNSTRMINAASIKWLNKVRSAISDHIRTSIEKGKLFELASLGSNMFGVPALSARPSTLQPVLAFEADPNHDLNLVRVYMQDSAGKLTPWDPTPNAVTTTSNPSEPDAQSDTASSSLPRRPPAGSVLSLLGIALDHAQRHSPRADRSAKGRPGREERNGARFNAKQTKPTEAEAYGDHQTPNPDLHRQKETAQRVAESINSMREQQNGMQRAEGLLRAKEALQAREAARKQLLDVLEAIQAGREDSTDKKISATEKNATGINYQ | not soluble
MGSDKIHHHHHHMSQHVLIAGGGIVGCLTAMELVSRGCRVTIVERNNIASQTSGESSWAGTGIMFPLLPWMYSDHVNTLTHYGASLYPDICARLFKETGIDPQMLDSGFLLLPPFDREAALTWCARYQVKAEDTKAAGFGVQSPNGQDALWLPDVKQVRPPCLMHALRTWLENHHVRLLERTELMPLSPGTSRLTAWATTSGELLEADRFIVTSGAWSFELLKEVASKLQIKPMRGQILLYKPEHNPRAVIFREDFYLVPRRDGYLLAGSTLEDVGFDPSVTDTVRDAIRAKAAALMPELADLPILKHWSGLRPGTPENLPIISPHPGIENLYLNTGHFRYGLTMGPASASLAAALVCGETPWTDPTPFSLPQ | not soluble
NIKNILSERVSAAMVAAGLPEGTNPAISLSNRPQFGDYQANGVMGAAKKLKTNPRELATKVVAELDLDGIASKIELAGPGFINIHLDESWLAAQLNEVAQDDFIGVAQRGTT | not soluble
MNMNQTTSPALSQVETAIRVPAGNFAKYNYYSVFDIVRQTRKQFINANMSWPGSRGGKTWDLAMGQAQYIRCMFRENQLTRRVRGTLQQTPDNGTNLSSSAVGGIQGQAERRPDLATLMVVNDAINQQIPTLLPYHFPHDQVELSLLNTDVSLEDIISESSIDWPWFLSNSLTGDNSNYAMELASRLSPEQQTLPTEPDNSTATDLTSFYQTNLGLKTADYTPFEALNTFARQLAITVPPGGTVDCGYSACQPAVLEHHHHHH | not soluble
MKRKFLIASHGNLAKGFQSSLDILADKGKELAVINAYVTPEDYTPIIQTFLQSLGAEEQAIILTDLYGGSVNQKIVQEVMTTKPDNVFIISNANLAIALSLIFLKEGEKLTKEDIQAAIAEAQIQFVELNPSNEEENFF | not soluble
MWDVKDIEQLSFARGLAIDETNDHQYKLTYQNLLPQSEDSQASGKPEFVNVTSHGKTILEAVSDVSIKDPPVYSDHLKVILLGEKLMRNQNVDQVLNHFIRDDELRRSSYLMAARGNAADVFTKGNPNQQQPMPSEKLIDLTTHSGYNGKIMIPLRIGRASVYSQNGYSYLIQAVKNEKGKAKYDGAGIIKRGSNKLVGFLSADETQTLSWVMGTIQGGVMPTTDKGHPITFEIKKSKTKIKPVIENGKPVFHISVKTKGILTEDQNPNENSFSKSYLHRLENIFEKKLERDVKQVMDKLQHEYKTDPVFLSDHIRIQHPDYWNKVKGHWDEIFSETDFKYDISFKIINFGTVGKLEHHHHHH | soluble
GAHMAGGRSWCLRRVGMSAGWLLLEDGCEVTVGRGFGVTYQLVSKICPLMISRNHCVLKQNPEGQWTIMDNKSLNGVWLNRARLEPLRVYSIHQGDYIQLGVPLENKENAEYEYEVTEEDWETIYPCLSPKNDQMIEK | soluble
MGSSHHHHHHSSGLVPRGSHMEPAATTYGTSTSVGVHNAYEKEKYRYFADALDSGAALLELDLWSNALGRSWRVSHSNPLGNNSNCEGAANASELRTKSRDQDFAGCLSDMRAWHDAHPGHRPILLKIEMKDGFNAKGGRGPAEFDALIRQKLGDAVYGPGDLTGGHATADEAVRAGGWPSRADLAGKFLFELIPGTVEEKNPFDKLWTDVEYAGHLKDLAAQGKLAQSTAFPAVHGAAPGDPRERYADPALRPWFVVFDGDAATYLNGSIDTSWYDTRHYLLIMTDAHNVPPVIDGTHPTEAEALARVRQLAAAHASFATADWYPLPSVLKTVVPRGA | soluble
MAHHHHHHMAKLSKQQKKQMYIEKLSSLIQQYSKILIVHVDNVGSNQMASVRKSLRGKATILMGKNTRIRTALKKNLQAVPQIEKLLPLVKLNMGFVFCKDDLSEIRNIILDNKSPAPARLGVIAPIDVFIPPGPTGMDPSHTSFFQSLGISTKIVKGQIEIQEHVHLIKQGEKVTASSATLLQKFNMKPFSYGVDVRTVYDDGVIYDAKVLDITDEDILEKFSKGVSNVAALSRATGVITEASYPHVFVEAFKNIVALIIDSDYTFPLMENIKKMVENPEAFAAVAAPASAAKADEPKKEEAKKVEEEEEEEEDGFMGFGMFD | not soluble
MSKDEIKKPVVLIYCDTIEGTNIYLKKICEGLEEEGVPFQIQQVEKVEDSVEVLAQNASRNSNLGIGIGVLKNGDCALLQRRLPPNLPIQTLRGEKYDPNLYRNIGINAARLAKNLPLVFA | not soluble
SKIADPAFLRRLGYKIEFKPLSLTDYQALWMSLAKDYQMTLVPEFFETLSQLHRDNDVAYFPCLPKDLLGISRDILVFEGKEKIVSSDILTRAWGLYFTVDE | soluble
MPLYVIDKPITLHILTQLRDKYTDQINFRKNLVRLGRILGYEISNTLDYEIVEVETPLGVKTKGVDITDLNNIVIINILRAAVPLVEGLLKAFPKARQGVIGASRVEVDGKEVPKDMDVYIYYKKIPDIRAKVDNVIIADPMIATASTMLKVLEEVVKANPKRIYIVSIISSEYGVNKILSKYPFIYLFTVAIDPELNNKGYILPGLGDAGDRAFG | soluble
